Here are results for 167 variants from the Human Domainome abundance scans (Beltran et al. 2025).

B1: Gamma-crystallin C, residues 4 to 79; numbered along this chain, P07315 (parent)
chain: ITFYEDRAFQGRSYETTTDCPNLQPYFSRCNSIRVESGCWMLYERPNYQGQQYLLRRGEYPDYQQWMGLSDSIRSC
B2: WW domain-binding protein 4, residues 8 to 43; numbered along this chain, O75554 (parent)
chain: QPKKFCDYCKCWIADNRPSVEFHERGKNHKENVAKR

± gives the uncertainty stated by the source.

Variants of B1 are the subject of one series. The series can be described thus: abundance fitness (aPCA) (normalised: wild type 0, dead -1); higher = more abundant; growth selection in yeast, the domain comes from the species named. The conditions noted are these: Homo sapiens.
With S75G, the abundance fitness was -0.069 ± 0.062.

Regarding S75M, the abundance fitness was -0.675 ± 0.13.

With S75D, the abundance fitness is -0.836 ± 0.41.

In the case of R56S, the abundance fitness was -0.611 ± 0.14.

R56W: the abundance fitness is -0.029 ± 0.18.

Take R56E: the abundance fitness is 0.005 ± 0.086.

Turning to R57P, the abundance fitness was -0.009 ± 0.12.

Consider R57S, for which the abundance fitness was -0.039 ± 0.11.

As to R57Q, the abundance fitness is 0.044 ± 0.14.

Take R57V: the abundance fitness came out at 0.024 ± 0.078.

Consider R57E, for which the abundance fitness came to 0.064 ± 0.1.

With R57F, the abundance fitness was found to be 0.059 ± 0.2.

As to G38C, the abundance fitness was -0.005 ± 0.14.

For the variant P21L, the abundance fitness was -0.023 ± 0.059.

Regarding P21T, the abundance fitness is 0.006 ± 0.097.

On to P21W, for which the abundance fitness is -0.05 ± 0.12.

Take P21C: the abundance fitness was -0.119 ± 0.1.

Turning to P21M, the abundance fitness was found to be 0.075 ± 0.099.

As to P21E, the abundance fitness is -0.074 ± 0.13.

For P21G, the abundance fitness is 0.053 ± 0.055.

On to R74H, for which the abundance fitness is -0.001 ± 0.11.

Turning to R74A, the abundance fitness was determined as 0.039 ± 0.05.

With R74E, the abundance fitness is -0.021 ± 0.066.

Consider E44S, for which the abundance fitness was -0.077 ± 0.1.

As for E44L, the abundance fitness was -0.006 ± 0.19.

As for E44V, the abundance fitness is -0.147 ± 0.11.

As for E44M, the abundance fitness is 0.355 ± 0.29.

On to E44C, for which the abundance fitness stood at 0.068 ± 0.19.

For R12K, the abundance fitness is 0.031 ± 0.1.

Turning to R12F, the abundance fitness was 0.026 ± 0.11.

Take R12P: the abundance fitness is -0.053 ± 0.076.

Take R12M: the abundance fitness was -0.043 ± 0.079.

Consider R12L, for which the abundance fitness was -0.034 ± 0.053.

For the variant T18F, the abundance fitness was -0.014 ± 0.24.

Regarding T18A, the abundance fitness was found to be 0.09 ± 0.18.

Regarding T18C, the abundance fitness is -0.165 ± 0.19.

For the variant T18Q, the abundance fitness was -0.333 ± 0.15.

As to T18W, the abundance fitness stood at 0.017 ± 0.091.

Take T18M: the abundance fitness was -0.008 ± 0.11.

T18E: the abundance fitness is -0.02 ± 0.1.

Turning to G58T, the abundance fitness was -0.102 ± 0.078.

Take I33V: the abundance fitness was -0.094 ± 0.097.

In the case of I33F, the abundance fitness was -0.057 ± 0.14.

With F27P, the abundance fitness was -0.865 ± 0.22.

In the case of F27N, the abundance fitness was -0.315 ± 0.17.

Consider F27G, for which the abundance fitness was -0.186 ± 0.063.

Consider F27H, for which the abundance fitness was -0.096 ± 0.033.

Take F27K: the abundance fitness is -0.658 ± 0.12.

Regarding F27L, the abundance fitness was -0.09 ± 0.08.

In the case of Y63N, the abundance fitness was -0.088 ± 0.21.

With Y63W, the abundance fitness was -0.126 ± 0.073.

For Y63D, the abundance fitness was -0.067 ± 0.12.

For Y63F, the abundance fitness turned out to be 0.032 ± 0.19.

Regarding Y63H, the abundance fitness was -0.234 ± 0.15.

Consider R29Y, for which the abundance fitness turned out to be 0.024 ± 0.16.

R29S: the abundance fitness came out at 0.059 ± 0.1.

Consider R29T, for which the abundance fitness was found to be 0.101 ± 0.14.

With I73Q, the abundance fitness was -0.798 ± 0.26.

I73E: the abundance fitness is -0.655 ± 0.2.

With I73C, the abundance fitness came to 0.047 ± 0.091.

As for I73M, the abundance fitness was determined as 0.106 ± 0.094.

Take I73A: the abundance fitness was found to be 0.055 ± 0.053.

For the variant I73T, the abundance fitness came to 0.053 ± 0.1.

Take I73K: the abundance fitness is -0.801 ± 0.25.

In the case of I73H, the abundance fitness was -0.693 ± 0.29.

Regarding I73L, the abundance fitness turned out to be 0.025 ± 0.077.

As to I73V, the abundance fitness turned out to be 0.085 ± 0.089.

D6L: the abundance fitness is 0.032 ± 0.083.

Take D6R: the abundance fitness was 0.003 ± 0.059.

Take D6Q: the abundance fitness was 0.086 ± 0.22.

As to D6M, the abundance fitness was 0.159 ± 0.25.

Regarding D6F, the abundance fitness was -0.204 ± 0.14.

In the case of E5I, the abundance fitness came out at 0.122 ± 0.2.

As to E5G, the abundance fitness is -0.124 ± 0.055.

For E5R, the abundance fitness is 0.014 ± 0.067.

Turning to L69K, the abundance fitness was -0.104 ± 0.091.

Turning to L69M, the abundance fitness was -0.163 ± 0.1.

On to L69F, for which the abundance fitness stood at 0.147 ± 0.12.

Turning to L69G, the abundance fitness was -0.028 ± 0.041.

Regarding L69W, the abundance fitness amounted to 0.098 ± 0.081.

L69C: the abundance fitness is 0.07 ± 0.12.

Consider L69S, for which the abundance fitness is -0.153 ± 0.076.

On to L69H, for which the abundance fitness is -0.045 ± 0.099.

L69N: the abundance fitness is -0.045 ± 0.18.

Consider Q10S, for which the abundance fitness was -0.066 ± 0.066.

Take Q10C: the abundance fitness is 0.053 ± 0.075.

For Q10G, the abundance fitness is -0.002 ± 0.038.

For the variant Q10R, the abundance fitness was -0.082 ± 0.052.

For the variant Q10W, the abundance fitness was -0.159 ± 0.091.

L55W: the abundance fitness is -0.631 ± 0.26.

For L55N, the abundance fitness is -0.85 ± 0.39.

As for L55D, the abundance fitness was -0.807 ± 0.32.

For Y53R, the abundance fitness is -0.019 ± 0.058.

Turning to Y53E, the abundance fitness was -0.142 ± 0.12.

Y53M: the abundance fitness was -0.005 ± 0.16.

As to C30L, the abundance fitness was -0.299 ± 0.074.

For the variant C30E, the abundance fitness was -0.95 ± 0.29.

For W66Y, the abundance fitness was found to be 0.069 ± 0.12.

On to W66C, for which the abundance fitness is -0.168 ± 0.13.

Take W66D: the abundance fitness was -0.12 ± 0.12.

For W66F, the abundance fitness is -0.009 ± 0.11.

W66V: the abundance fitness amounted to 0.018 ± 0.077.

In the case of W66M, the abundance fitness was -0.093 ± 0.14.

For Y14E, the abundance fitness was -0.375 ± 0.12.

With Y14G, the abundance fitness is -0.497 ± 0.086.

As to Y14F, the abundance fitness was 0.114 ± 0.14.

With Y14M, the abundance fitness is 0.423 ± 0.29.

Y14R: the abundance fitness was -0.05 ± 0.054.

With Y14A, the abundance fitness is -0.024 ± 0.1.

Regarding L54T, the abundance fitness is -0.234 ± 0.1.

For the variant L54K, the abundance fitness was found to be 0.057 ± 0.19.

For L54N, the abundance fitness is -0.025 ± 0.35.

Regarding Q65N, the abundance fitness is 0.014 ± 0.14.

For the variant Q65E, the abundance fitness worked out at 0.052 ± 0.073.

As to Q65H, the abundance fitness was -0.065 ± 0.089.

Take Q65W: the abundance fitness was -0.119 ± 0.062.

Regarding Q65R, the abundance fitness was -0.036 ± 0.057.

For the variant Q65S, the abundance fitness is -0.042 ± 0.064.

In the case of L23T, the abundance fitness is -0.081 ± 0.12.

For the variant L23W, the abundance fitness is -0.771 ± 0.26.

Consider L23G, for which the abundance fitness was -0.727 ± 0.12.

As for L23M, the abundance fitness is 0.027 ± 0.18.

L23V: the abundance fitness is 0.005 ± 0.064.

Take L23A: the abundance fitness is -0.173 ± 0.082.

As for L42G, the abundance fitness is -0.063 ± 0.065.

Consider L42C, for which the abundance fitness was -0.031 ± 0.18.

L42W: the abundance fitness was -0.919 ± 0.27.

Turning to S70Q, the abundance fitness was -0.077 ± 0.15.

Q51V: the abundance fitness is -0.016 ± 0.1.

Q51L: the abundance fitness came out at 0.014 ± 0.16.

Regarding Q51P, the abundance fitness is -0.219 ± 0.087.

Take Q64Y: the abundance fitness was -0.182 ± 0.14.

Take Q64K: the abundance fitness was -0.042 ± 0.12.

On to Q64S, for which the abundance fitness was -0.188 ± 0.082.

With Q64C, the abundance fitness was found to be 0.062 ± 0.096.

On to Q64I, for which the abundance fitness is -0.039 ± 0.12.

In the case of Q64P, the abundance fitness was -0.013 ± 0.085.

With Q64L, the abundance fitness is -0.081 ± 0.06.

Q64V: the abundance fitness is -0.022 ± 0.062.

Y26F: the abundance fitness was 0.033 ± 0.12.

With Y26S, the abundance fitness was found to be 0.045 ± 0.097.

As to Y26E, the abundance fitness is -0.138 ± 0.11.

As for Y26A, the abundance fitness stood at 0.064 ± 0.053.

Take M41A: the abundance fitness is -0.07 ± 0.12.

On to M41Y, for which the abundance fitness was 0.032 ± 0.1.

As for M41S, the abundance fitness was 0.068 ± 0.1.

M41N: the abundance fitness is -0.132 ± 0.42.

As for N31G, the abundance fitness is -0.069 ± 0.28.

Turning to N31V, the abundance fitness is -0.052 ± 0.35.

As for N31R, the abundance fitness was -0.013 ± 0.24.

For the variant R7I, the abundance fitness is -0.141 ± 0.31.

For the variant R7K, the abundance fitness was -0.141 ± 0.2.

Regarding R7Y, the abundance fitness is -0.266 ± 0.24.

As to R7M, the abundance fitness was -0.444 ± 0.21.

Consider R7L, for which the abundance fitness is -0.029 ± 0.12.

As for R7P, the abundance fitness is 0.219 ± 0.3.

For the variant T2Y, the abundance fitness amounted to 0.088 ± 0.34.

On to T2E, for which the abundance fitness is -0.473 ± 0.15.

On to T2Q, for which the abundance fitness is -0.114 ± 0.16.

On to R34Y, for which the abundance fitness was -0.098 ± 0.2.

In the case of R34G, the abundance fitness is -0.593 ± 0.078.

With R34H, the abundance fitness is -0.163 ± 0.32.

For the variant R34W, the abundance fitness was -0.045 ± 0.16.

Take R34P: the abundance fitness was -0.827 ± 0.25.

In another series the parent is B2. The series is described as above. Conditions: Homo sapiens.
For N32C, the abundance fitness is -0.158 ± 0.1.

Turning to K27L, the abundance fitness was -0.114 ± 0.061.

As for K30L, the abundance fitness is -0.061 ± 0.061.
